Here are results for seven molecules from PMC4599002, “The Potato Nucleotide-binding Leucine-rich Repeat (NLR) Immune Receptor Rx1 Is a Pathogen-dependent DNA-deforming Protein” (The Journal of Biological Chemistry, 2015).

The target in one data set is T1, Rx1(1–489)WT (Solanum tuberosum, UniProt Q9XGF5).
T1 construct: gene rx; CC-NB-ARC region, residues 1-489, LRR domain absent; pET32c, hexahistidine tag
T1 sequence (Q9XGF5 1-489): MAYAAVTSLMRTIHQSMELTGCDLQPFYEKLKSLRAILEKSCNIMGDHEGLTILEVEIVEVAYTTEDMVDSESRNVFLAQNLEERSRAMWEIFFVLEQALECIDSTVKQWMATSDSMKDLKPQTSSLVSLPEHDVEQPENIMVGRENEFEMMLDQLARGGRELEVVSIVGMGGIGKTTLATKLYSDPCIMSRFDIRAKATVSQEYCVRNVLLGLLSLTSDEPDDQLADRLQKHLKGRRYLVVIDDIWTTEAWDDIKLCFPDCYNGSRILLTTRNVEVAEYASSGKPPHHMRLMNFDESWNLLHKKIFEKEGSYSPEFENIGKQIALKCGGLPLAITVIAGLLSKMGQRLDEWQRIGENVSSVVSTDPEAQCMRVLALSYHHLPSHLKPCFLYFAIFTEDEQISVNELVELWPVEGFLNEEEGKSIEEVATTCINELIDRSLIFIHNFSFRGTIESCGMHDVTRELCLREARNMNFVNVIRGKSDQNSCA
The experiment in a line: time-resolved FRET of DNA bending. Conditions: 20-bp end-labelled dsDNA (50 nM), 1.5 uM protein, 60 mM NaCl, room temperature; activator of DNA bending, P-loop dependent. Format: biochemical.

For data set [1], the target named is T2, Rx1(1-489) WT (CC-NB-ARC) (potato (introgressed from Solanum …, UniProt Q9XGF5 1-489)).
T2 sequence: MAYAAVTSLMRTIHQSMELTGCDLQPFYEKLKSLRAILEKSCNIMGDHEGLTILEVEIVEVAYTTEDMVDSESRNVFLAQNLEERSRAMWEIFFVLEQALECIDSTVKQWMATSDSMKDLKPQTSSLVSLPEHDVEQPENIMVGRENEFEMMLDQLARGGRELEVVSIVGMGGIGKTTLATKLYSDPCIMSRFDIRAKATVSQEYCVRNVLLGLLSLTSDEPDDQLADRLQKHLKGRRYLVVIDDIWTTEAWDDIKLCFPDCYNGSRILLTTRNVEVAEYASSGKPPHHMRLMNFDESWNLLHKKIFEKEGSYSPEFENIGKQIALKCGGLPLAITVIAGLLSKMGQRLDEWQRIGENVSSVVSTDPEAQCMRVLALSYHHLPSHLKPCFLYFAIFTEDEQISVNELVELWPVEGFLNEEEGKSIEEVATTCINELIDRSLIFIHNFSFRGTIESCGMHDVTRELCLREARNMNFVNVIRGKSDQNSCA
The experiment in a line: P1 nuclease sensitivity; no nucleotide; local melting; EMSA: 0.15 nM 32P nucleic acid, 20 mM Tris-HCl pH 8.0, 60 mM NaCl, 2 mM EDTA, 1 mM DTT, 10% glycerol, 0.1 mg/ml BSA, 20 min on ice; FRET: 1.5 uM protein, 50 nM. Conditions: protein: recombinant; tags: His6 (pET32c); label: 32P 5' end of strand 1; blunt. In general terms: In EMSA bound probe runs differently from free probe, usually more slowly.

The next data set concerns the target T3, Orc1-1;Orc1-3 (Sulfolobus solfataricus;Sulfolobus …, UniProt Q980N4;Q97WM8 1-397;1-394, |).
T3 sequence 1: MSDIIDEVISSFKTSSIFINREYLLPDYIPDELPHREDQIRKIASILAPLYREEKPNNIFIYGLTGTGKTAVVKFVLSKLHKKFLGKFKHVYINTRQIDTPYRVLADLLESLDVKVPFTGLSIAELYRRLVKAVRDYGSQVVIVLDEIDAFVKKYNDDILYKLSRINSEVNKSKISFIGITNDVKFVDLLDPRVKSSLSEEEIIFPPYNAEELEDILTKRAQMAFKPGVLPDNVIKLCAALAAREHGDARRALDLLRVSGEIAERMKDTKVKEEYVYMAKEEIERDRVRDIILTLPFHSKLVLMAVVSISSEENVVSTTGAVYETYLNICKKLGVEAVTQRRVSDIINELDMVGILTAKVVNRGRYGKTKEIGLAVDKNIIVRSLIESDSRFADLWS
T3 sequence 2: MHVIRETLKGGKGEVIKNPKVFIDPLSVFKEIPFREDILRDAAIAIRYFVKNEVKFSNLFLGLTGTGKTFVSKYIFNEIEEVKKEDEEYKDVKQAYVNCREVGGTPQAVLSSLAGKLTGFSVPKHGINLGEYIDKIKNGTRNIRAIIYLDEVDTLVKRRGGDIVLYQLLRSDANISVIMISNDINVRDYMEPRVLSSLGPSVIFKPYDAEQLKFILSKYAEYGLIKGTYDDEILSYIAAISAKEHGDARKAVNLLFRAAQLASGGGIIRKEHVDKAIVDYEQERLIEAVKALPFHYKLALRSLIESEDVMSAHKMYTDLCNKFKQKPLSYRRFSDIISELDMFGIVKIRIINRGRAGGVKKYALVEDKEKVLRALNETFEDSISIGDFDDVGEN
The experiment in a line: P1 nuclease sensitivity; sensitivity indistinguishable from Rx1(1-489)WT; EMSA: 0.15 nM 32P nucleic acid, 20 mM Tris-HCl pH 8.0, 60 mM NaCl, 2 mM EDTA, 1 mM DTT, 10% glycerol, 0.1 mg/ml BSA, 20 min on ice; FRET: 1.5 uM protein, 50 nM. Conditions: protein: recombinant;recombinant; tags: ;; copies: 1;1; label: 32P 5' end of strand 1; blunt.

Data set [2] has as its target T2, Rx1(1-489) WT (CC-NB-ARC). The data set is described as follows: EMSA; affinity similar to dsDNA; Kd in Table 1 not in material; EMSA: 0.15 nM 32P nucleic acid, 20 mM Tris-HCl pH 8.0, 60 mM NaCl, 2 mM EDTA, 1 mM DTT, 10% glycerol, 0.1 mg/ml BSA, 20 min on ice; FRET: 1.5 uM protein, 50 nM. Conditions: protein: recombinant; tags: His6 (pET32c); label: 32P 5' end; single strand.

Data set [3] has as its target T2, Rx1(1-489) WT (CC-NB-ARC). The experiment in a line: EMSA; apparent Kd in Table 1 (values not in material); text: submicromolar; EMSA: 0.15 nM 32P nucleic acid, 20 mM Tris-HCl pH 8.0, 60 mM NaCl, 2 mM EDTA, 1 mM DTT, 10% glycerol, 0.1 mg/ml BSA, 20 min on ice; FRET: 1.5 uM protein, 50 nM. Conditions: protein: recombinant; tags: His6 (pET32c); label: 32P 5' end; blunt.

The target in data set [4] is T2, Rx1(1-489) WT (CC-NB-ARC). The data set is described as follows: EMSA; higher affinity than dsDNA or ssRNA; Kd in Table 1 not in material; EMSA: 0.15 nM 32P nucleic acid, 20 mM Tris-HCl pH 8.0, 60 mM NaCl, 2 mM EDTA, 1 mM DTT, 10% glycerol, 0.1 mg/ml BSA, 20 min on ice; FRET: 1.5 uM protein, 50 nM. Conditions: protein: recombinant; tags: His6 (pET32c); label: 32P 5' end; single strand.

Data set [5] has as its target T2, Rx1(1-489) WT (CC-NB-ARC). The experiment in a line: EMSA; higher affinity than F12-ds/ss; EMSA: 0.15 nM 32P nucleic acid, 20 mM Tris-HCl pH 8.0, 60 mM NaCl, 2 mM EDTA, 1 mM DTT, 10% glycerol, 0.1 mg/ml BSA, 20 min on ice; FRET: 1.5 uM protein, 50 nM. Conditions: protein: recombinant; tags: His6 (pET32c); label: 32P 5' end of strand 1; fork 1:2, two single-stranded arms.

The target of data set [6] is T2, Rx1(1-489) WT (CC-NB-ARC). The experiment in a line: time-resolved FRET (bending); no nucleotide; bend angle 42 degrees; EMSA: 0.15 nM 32P nucleic acid, 20 mM Tris-HCl pH 8.0, 60 mM NaCl, 2 mM EDTA, 1 mM DTT, 10% glycerol, 0.1 mg/ml BSA, 20 min on ice; FRET: 1.5 uM protein, 50 nM. Conditions: protein: recombinant; tags: His6 (pET32c); label: fluorescein donor and tetramethylrhodamine acceptor, end labels; blunt.

The next data set concerns the target T4, Rx1(1-489) K176R (potato (introgressed from Solanum …, UniProt Q9XGF5 1-489, K176R)).
T4 sequence: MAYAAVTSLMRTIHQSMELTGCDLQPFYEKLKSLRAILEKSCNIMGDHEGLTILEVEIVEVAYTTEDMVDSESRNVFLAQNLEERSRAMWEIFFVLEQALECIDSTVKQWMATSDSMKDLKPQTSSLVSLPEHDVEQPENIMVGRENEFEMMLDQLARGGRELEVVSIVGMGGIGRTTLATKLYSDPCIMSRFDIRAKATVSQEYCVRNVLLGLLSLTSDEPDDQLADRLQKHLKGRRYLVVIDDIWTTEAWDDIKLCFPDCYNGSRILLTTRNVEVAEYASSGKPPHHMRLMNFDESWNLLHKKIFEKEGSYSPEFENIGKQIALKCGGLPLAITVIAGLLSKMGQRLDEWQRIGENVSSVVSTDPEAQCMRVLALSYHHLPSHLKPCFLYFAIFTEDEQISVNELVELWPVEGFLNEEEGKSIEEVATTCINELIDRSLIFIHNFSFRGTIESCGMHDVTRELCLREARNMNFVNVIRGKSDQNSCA
The experiment in a line: time-resolved FRET (bending); no nucleotide; bends similarly to WT; EMSA: 0.15 nM 32P nucleic acid, 20 mM Tris-HCl pH 8.0, 60 mM NaCl, 2 mM EDTA, 1 mM DTT, 10% glycerol, 0.1 mg/ml BSA, 20 min on ice; FRET: 1.5 uM protein, 50 nM. Conditions: protein: recombinant; tags: His6 (pET32c); label: fluorescein donor and tetramethylrhodamine acceptor, end labels; blunt.

As to `Nc1ncnc2c1ncn2[C@@H]1O[C@H](COP(=O)(O)OP(=O)(O)OP(=O)(O)O)[C@@H](O)[C@H]1O` [ATP], the “time-resolved FRET of DNA bending” value on Rx1(1–489)WT is recorded as “Notably ATP, but not ADP, strongly increased the contribution of the 129-ps lifetime”.

B1: C3/mORB dual site of oriC2 (dsDNA)
DNA 1: CTCAATACAATTGTCTCTGTGTAAATTTCCTACGTTTCATCTGAAAATCTAGCTATTAGAGCTTGGTTTA
DNA 2: TAAACCAAGCTCTAATAGCTAGATTTTCAGATGAAACGTAGGAAATTTACACAGAGACAATTGTATTGAG
B1: the binding result (in data set [1]; with Orc1-1;Orc1-3) was “binds” each time.
Turning to UGGGUCAACGUGGGCAAAGAUGUCCUAGCAAUGUAAUCGUCUAUGACGUU (ssRNA) [SS1 ssRNA], the binding result in data set [2] was “binds”.

B2: SS1/SS2 dsDNA (dsDNA)
DNA 1: TGGGTCAACGTGGGCAAAGATGTCCTAGCAATGTAATCGTCTATGACGTT
DNA 2: AACGTCATAGACGATTACATTGCTAGGACATCTTTGCCCACGTTGACCCA
As to B2, in [3], the binding result is recorded as “binds”.
As to TGGGTCAACGTGGGCAAAGATGTCCTAGCAATGTAATCGTCTATGACGTT (ssDNA) [SS1 ssDNA], the binding result in data set [4] is reported as “binds”.

B3: F12-ss/ss (structured_DNA)
DNA 1: GACGCTGCCGAATTCTGGCTTGCTAGGACATCTTTGCCCACGTTGACCC
DNA 2: TGGGTCAACGTGGGCAAAGATGTCCTAGCAATGTAATCGTCTATGACGTT
Consider B3, for which the binding result in data set [5] was “binds”.

B4: 20-bp FRET duplex (dsDNA)
DNA 1: TGGGTCAACGTGGGCAAAGA
DNA 2: TCTTTGCCCACGTTGACCCA
On to B4, for which the binding result (in data set [6]; with Rx1(1-489) K176R) was “binds” in each case.
